We go through six molecules from publication PMC4333417 (Nucleic Acids Research, 2015).

For series [1], the target named is T1, Sco5333 (Streptomyces coelicolor, UniProt Q9ADD4 1-301).
T1 sequence: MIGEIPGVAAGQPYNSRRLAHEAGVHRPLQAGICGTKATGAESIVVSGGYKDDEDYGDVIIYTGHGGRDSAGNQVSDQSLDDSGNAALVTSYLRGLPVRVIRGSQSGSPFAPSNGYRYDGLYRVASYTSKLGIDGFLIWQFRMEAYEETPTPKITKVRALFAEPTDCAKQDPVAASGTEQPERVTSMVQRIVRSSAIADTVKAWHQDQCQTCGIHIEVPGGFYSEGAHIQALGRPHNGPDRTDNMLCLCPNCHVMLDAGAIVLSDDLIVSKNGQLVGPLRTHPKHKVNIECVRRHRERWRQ
Description: ITC. A general note: In ITC the heat of successive injections is recorded.

Another series addresses T2, Sco5333 G32A (Streptomyces coelicolor, UniProt Q9ADD4 1-301, G32A).
T2 sequence: T1 sequence with G32A
Description: EMSA.

In another series the target is MBD of mouse MeCP2 (mouse, UniProt Q9Z2D6 77-165). Description: EMSA.
A further series concerns the target T3, Sco5333 H228A (Streptomyces coelicolor, UniProt Q9ADD4 1-301, H228A).
T3 sequence: T1 sequence with H228A
In words: EMSA.

The target of another series is T4, Sco5333 H253A (Streptomyces coelicolor, UniProt Q9ADD4 1-301, H253A).
T4 sequence: T1 sequence with H253A
Description: EMSA. (In general: Mobility shift assays separate free from complexed probe on a gel.)

Another series addresses T5, Sco5333 Y50A (Streptomyces coelicolor, UniProt Q9ADD4 1-301, Y50A).
T5 sequence: T1 sequence with Y50A
In words: EMSA.

The target in series [2] is T1, Sco5333. In words: ITC. The source holds these as a separate data set.
For series [3], the target named is T1, Sco5333. Description: ITC. The source holds these as a separate data set.
The next series addresses T6, Tbis1 (Thermobispora bispora DSM 43833, UniProt D6YAC6 2-309).
T6 sequence: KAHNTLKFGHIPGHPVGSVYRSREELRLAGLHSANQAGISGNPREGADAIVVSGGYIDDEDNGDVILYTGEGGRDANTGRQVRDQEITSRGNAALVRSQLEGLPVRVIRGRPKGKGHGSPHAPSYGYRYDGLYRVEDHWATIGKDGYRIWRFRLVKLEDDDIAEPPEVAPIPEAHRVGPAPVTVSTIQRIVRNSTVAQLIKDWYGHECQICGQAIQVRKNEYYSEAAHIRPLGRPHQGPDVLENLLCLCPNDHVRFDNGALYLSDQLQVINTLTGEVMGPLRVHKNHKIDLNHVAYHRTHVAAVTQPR
In words: EMSA.

Series [4] addresses T7, MBD of human MeCP2 (human, UniProt P51608 77-166). In words: EMSA.
Series [5] addresses T7, MBD of human MeCP2. In words: EMSA. This is another data set of the same source.
The series “SEC” concerns the molecule itself. In words: SEC. (Size exclusion chromatography separates by hydrodynamic size, large species first.)

Numbering of substitutions follows the chain as printed. Like-named read-outs stand apart in the source and are kept apart here.

Sequence of MBD of mouse MeCP2 (Q9Z2D6 77-165): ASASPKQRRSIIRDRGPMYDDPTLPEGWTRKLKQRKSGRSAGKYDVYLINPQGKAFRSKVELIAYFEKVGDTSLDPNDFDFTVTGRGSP
T7 sequence (P51608 77-166): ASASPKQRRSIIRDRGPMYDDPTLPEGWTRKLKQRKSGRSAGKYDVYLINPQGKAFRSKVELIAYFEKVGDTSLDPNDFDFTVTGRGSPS

B1: 54nt fully methylated (54nt-1/3) (dsDNA)
DNA 1: GAAACCCGACAGGACTATAAAGATACCGGCGTTTCCCCCTGGAAGCTCCCTCGT
DNA 2: ACGAGGGAGCTTCCAGGGGGAAACGCCGGTATCTTTATAGTCCTGTCGGGTTTC
modifications: 5mC at strand 1 pos 27 and strand 2 pos 27
For orientation: Kd means a measure of binding affinity in units of concentration. Read a low Kd as tighter binding. In the case of B1, the Kd in the series with Sco5333 [1] is 4.13 µM. Further, the binding result with Sco5333 G32A is recorded as “no binding”; with MBD of mouse MeCP2 it was “binds”; in the series with Sco5333 H228A, “binds”; in the series with Sco5333 H253A, “binds”; with Sco5333 Y50A it was “no binding”.

B2: 54nt bottom methylated (54nt-2/3) (dsDNA)
DNA 1: B1 DNA 1
DNA 2: B1 DNA 2
modifications: 5mC at strand 2 pos 27
As for B2, in the series with Sco5333 [2], the Kd worked out at 1.47 µM. The binding result with MBD of mouse MeCP2 is listed as “no binding”.

B3: 54nt top methylated (54nt-1/4) (dsDNA)
DNA 1: B1 DNA 1
DNA 2: B1 DNA 2
modifications: 5mC at strand 1 pos 27
On to B3, for which the Kd in the series with Sco5333 [3] was determined as 3.14 µM. Moreover, in the series with MBD of mouse MeCP2, the binding result is given as “no binding”.

B4: 66nt fully methylated (66nt-1/3) (dsDNA)
DNA 1: AAAAACGGCGTTTCCGGGTTCCATAGGCTCCGCACCGGTCTCTGATGACCAGGGCATCACATTTTT
DNA 2: AAAAATGTGATGCCCTGGTCATCAGAGACCGGTGCGGAGCCTATGGAACCCGGAAACGCCGTTTTT
modifications: 5mC at strand 1 pos 36 and strand 2 pos 30
On to B4, for which the results for the binding signal with Tbis1 and in the series with MBD of human MeCP2 [4] were > 100 fold preference over non-methylated and 64 fold preference over non-methylated, respectively.

B5: 66nt non-methylated (66nt-2/4) (dsDNA)
DNA 1: B4 DNA 1
DNA 2: B4 DNA 2
With B5, the binding signal in the series with MBD of human MeCP2 [5] is 64 protein:DNA molar ratio for shift.

B6: Sco5333 (enzyme, Streptomyces coelicolor, UniProt Q9ADD4 1-301, looked up)
chain: T1 sequence
As usually defined, the stoichiometry N is the number of molecules, sites or subunits per partner or assembly. In the case of B6, the “stoichiometry N” value in the series “SEC” was determined as 2.
